# Reference: publication PMC8477192, “An ionic lock and a hydrophobic zipper mediate the coupling between an insect pheromone receptor BmOR3 and downstream effectors” (The Journal of Biological Chemistry, 2021)
# T1: BmOR3–BmOrco (Bombyx mori, UniProt Q5FBE0)
# T1 sequence (Q5FBE0 1-439): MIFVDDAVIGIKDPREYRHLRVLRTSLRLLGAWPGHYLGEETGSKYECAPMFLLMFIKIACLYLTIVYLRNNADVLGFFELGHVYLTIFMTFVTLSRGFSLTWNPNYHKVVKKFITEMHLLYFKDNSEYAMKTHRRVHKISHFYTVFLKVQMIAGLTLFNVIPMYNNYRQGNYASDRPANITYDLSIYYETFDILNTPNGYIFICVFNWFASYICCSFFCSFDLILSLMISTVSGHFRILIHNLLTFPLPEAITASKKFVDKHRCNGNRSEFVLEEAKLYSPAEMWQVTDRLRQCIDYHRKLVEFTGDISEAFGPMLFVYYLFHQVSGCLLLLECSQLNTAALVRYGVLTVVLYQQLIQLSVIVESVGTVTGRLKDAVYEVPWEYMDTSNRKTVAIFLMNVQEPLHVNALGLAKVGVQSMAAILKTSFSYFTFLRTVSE
# T1 sequence (Q7YT34 1-472 partner): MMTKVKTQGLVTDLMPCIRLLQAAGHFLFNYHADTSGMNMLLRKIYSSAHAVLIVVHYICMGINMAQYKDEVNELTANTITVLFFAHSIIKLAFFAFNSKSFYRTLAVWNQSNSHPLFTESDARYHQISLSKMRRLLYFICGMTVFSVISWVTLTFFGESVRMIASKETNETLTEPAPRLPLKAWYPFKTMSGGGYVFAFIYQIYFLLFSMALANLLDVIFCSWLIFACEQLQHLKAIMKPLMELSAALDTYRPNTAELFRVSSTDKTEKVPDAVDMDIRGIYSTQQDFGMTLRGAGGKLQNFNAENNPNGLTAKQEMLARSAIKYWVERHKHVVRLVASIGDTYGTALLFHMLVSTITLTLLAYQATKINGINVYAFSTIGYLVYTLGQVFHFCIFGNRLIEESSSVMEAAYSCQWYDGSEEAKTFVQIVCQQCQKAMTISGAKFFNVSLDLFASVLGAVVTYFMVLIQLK
# T2: YFP-BmOR3 (Bombyx mori, UniProt Q5FBE0 1-439)
# T2 construct: BmOR3, pheromone (bombykal) receptor of Bombyx mori; also called N-terminal YFP-tagged BmOR3; YFP-WT-BmOR3; source: HEK293, transfected, in living cells; not shown: YFP, N-terminal, kept
# T2 sequence (looked up): T1 sequence (Q5FBE0 1-439)
# B1: Gi3-Rluc (natural protein, UniProt P08754 1-354, looked up)
# chain: MGCTLSAEDKAAVERSKMIDRNLREDGEKAAKEVKLLLLGAGESGKSTIVKQMKIIHEDGYSEDECKQYKVVVYSNTIQSIIAIIRAMGRLKIDFGEAARADDARQLFVLAGSAEEGVMTPELAGVIKRLWRDGGVQACFSRSREYQLNDSASYYLNDLDRISQSNYIPTQQDVLRTRVKTTGIVETHFTFKDLYFKMFDVGGQRSERKKWIHCFEGVTAIIFCVALSDYDLVLAEDEEMNRMHESMKLFDSICNNKWFTETSIILFLNKKDLFEEKIKRSPLTICYPEYTGSNTYEEAAAYIQCQFEDLNRRKDTKEIYTHFTCATDTKNVQFVFDAVTDVIIKNNLKECGLY
# notes: G protein alpha subunit Gi3 (Gαi3); also called Gαi-Rluc; Rluc-tagged Gi protein; source: HEK293, transfected, in living cells
# Columns and labels:
# YFP-BmOrco (Bombyx mori) [1] = test: FRET or BRET; intermolecular BRET in living HEK293 cells after bombykal for 5 min (dose response or ΔBRET); Rluc-BmOR3 with YFP-BmOrco, or Rluc-BmOrco with YFP-BmOR3; pretreatment with 100 ng/ml pertussis toxin without significant effect
# YFP-BmOrco (Bombyx mori) [2] = test: FRET or BRET; saturation BRET in living HEK293 cells, no agonist; fixed Rluc donor, increasing YFP acceptor plasmid; coelenterazine h 5 μM; Lyn-YFP as negative control
# [3] = biological target: Rluc-BmOrco (Bombyx mori)
# BmOR3–BmOrco = biological target: T1, BmOR3–BmOrco; test: BmOR3–BmOrco intermolecular BRET assay; type: cell-based; settings: HEK293 cells; pretreatment 100 ng/ml
# Experimental: HEK293 cells were cotransfected with the N-terminal Rluc-tagged WT BmOR3 together with N-terminal YFP-fused BmOrco plasmids or their mutants. Twenty-four hours after transfection, cells were distributed into a 96-well microplate. After another 24 h, the cells were stimulated with different concentrations of bombykal for 5 min. BRET between RLuc and YFP was measured using a Mithras LB 940 multimode reader after the addition of the RLuc substrate coelenterazine h (5 μM). The BRET signal was calculated as the ratio of emission of YFP (530 nm) to RLuc (485 nm). For the saturation BRET between Rluc-BmOrco and YFP-BmOR3, HEK293 cells were transfected with a fixed amount of Rluc-BmOrco and increasing amounts of YFP-BmOR3. The BRET signal between RLuc and YFP was directly measured after the addition of the substrate coelenterazine h (5 μM).
# BmOR3 [4] = biological target: T3, BmOR3 (Bombyx mori, UniProt Q5FBE0); test: Arrestin recruitment BRET assay; type: cell-based; settings: HEK293 cells; pretreatment
# Experimental: HEK293 cells were transiently cotransfected with the N-terminal YFP-tagged BmOR3 together with N-terminal Rluc-fused β-arrestin-1, β-arrestin-2, or BmArr plasmids. Twenty-four hours after transfection, cells were distributed into a 96-well microplate and incubated for additional 24 h. The cells were stimulated with varying concentrations of bombykal for 10 min, and the BRET signal between YFP (530 nm) and Rluc (485 nm) was measured after the addition of the Rluc substrate coelenterazine h (5 μM) using a Mithras LB 940 multimode reader (Berthold Technologies). The BRET signal was calculated as the ratio of emission of YFP to Rluc.
# BmOR3 [5] = biological target: T3, BmOR3; test: Arrestin-kinase BRET assay; type: cell-based; settings: HEK293 cells transfected with BmOR3; pretreatment
# Experimental: Twenty-four hours after transfection, cells were distributed into a 96-well microplate. After another 24 h, the cells were stimulated with 1 μM bombykal (for BmOR3-transfected cells) or 1 μM AngII for 10 min (for AT1R-transfected cells). BRET between RLuc and YFP was measured using a Mithras LB 940 multimode reader after the addition of the RLuc substrate coelenterazine h (5 μM). The BRET signal was calculated as the ratio of emission of YFP (530 nm) to RLuc (485 nm).
# BmOR3 and BmOrco = test: CalfluxVTN Ca2+ assay (BRET-based calcium sensor); type: cell-based, Bombyx mori; settings: HEK293 cells; pretreatment 100 ng/ml
# Experimental: HEK293 cells were cotransfected with plasmids encoding WT BmOR3 and BmOrco or their mutants, or AT1R together with CalfluxVTN probe. 24 h after transfection, cells were redistributed into 96-well flat-bottomed microplates. After another 24 h, cells were incubated with conventional buffer with Ca^2+ (135 mM NaCl, 5 mM KCl, 1 mM CaCl2, 5 mM D-glucose, 10 mM Hepes; pH = 7.4) or with Ca^2+-free buffer (135 mM NaCl, 5 mM KCl, 1 mM EGTA, 5 mM D-glucose, 10 mM Hepes; pH = 7.4), and stimulated with different concentrations of Bombykal (or AngII). The BRET ratio between Venus and Nluc was measured before (baseline) and after the addition of the Nluc substrate furimazine (5 μM) using a Mithras LB 940 multimode reader (Berthold Technologies). The BRET signal was calculated as ratio of emission of Venus (530 nm) to Nluc (460 nm). The baseline value was subtracted from the bombykal-stimulated BRET signal to obtain the ΔBRET value.
# YFP-BmOR3 = biological target: T2, YFP-BmOR3; test: FRET or BRET; G protein recruitment BRET in living HEK293 cells; YFP-BmOR3 with Gi-Rluc; increasing bombykal for 2 min; net BRET after subtracting cells with Gi-Rluc only; net BRET also without bombykal; BmOrco coexpression without significant effect; settings: partners not purified
molecule,measurement,setting,value
Rluc-BmOR3 (receptor),EC50 of bombykal for the BRET increase,YFP-BmOrco (Bombyx mori) [1],36 nM
same,BRET50 (receptor expression ratio) (receptor expression ratio),YFP-BmOrco (Bombyx mori) [2],1
YFP-BmOR3 (from UniProt Q5FBE0 1-439) (receptor),"bombykal (1 μM)-stimulated Ca2+ response (CalfluxVTN BRET sensor) in HEK293 cells coexpressing BmOR3 and BmOrco, relative to angiotensin II through AT1R (% of the AT1R response)",[3],70
pertussis toxin [PTX],effect of pretreatment on bombykal-induced BmOR3–BmOrco complex formation,BmOR3–BmOrco,no significant effects
same,effect of pretreatment on bombykal-induced β-arrestin recruitment to BmOR3,BmOR3 [4],not affected
same,"effect of pretreatment on bombykal-induced association of β-arrestin with ERK, SRC, and AKT",BmOR3 [5],not significantly affected
same,effect of pretreatment on bombykal-induced complex-regulated calcium influx,BmOR3 and BmOrco,no significant effects
B1,EC50 of bombykal for the BRET increase,YFP-BmOR3,10.6 ± 2.06 nM
